Experimental data: US20260207798A1, “CYCLIC PEPTIDES AS PET IMAGING AGENTS OF GRANZYME B” (priority 2022, published 2026)
Bridge positions count the residues as written; N and C are the ends. NOTA‑1 = 1,4,7-triazacyclononane-N,N',N''-triacetic acid phenyl thiourea

Columns and labels:
Human Granzyme B [1] = target: T1, Human Granzyme B (Homo sapiens, UniProt P10144); assay: Binding of scrambled control peptide to human granzyme-B (method not given); set-up: Ten million human peripheral blood mononuclear cell (PBMC) were engrafted in immunocompromised NOG (NOD/Shi-scid/IL-2Rγ) mice; endogenous in cells; host or cells: human PBMC (donor-derived) engrafted in NOG mice
Human Granzyme B [2] = target: T1, Human Granzyme B; assay type: in vivo; set-up: Ten million human peripheral blood mononuclear cell (PBMC) were engrafted in immunocompromised NOG (NOD/Shi-scid/IL-2Rγ) mice; endogenous in cells; host or cells: human PBMC (donor-derived) engrafted in NOG mice; settings: 18F-labeled peptides, i.v., mice, static PET/CT 1 h after injection
Description: Diseased model: Graft versus host disease (GvHD) model was selected to evaluate radiolabeled granzyme-B peptides due to presence of human granzyme-B after onset of disease. Ten million human peripheral blood mononuclear cell (PBMC) were engrafted in immunocompromised NOG (NOD/Shi-scid/IL-2Rγ) mice. Body weight was monitored routinely, once the mice started to lose weight (indication of onset of disease), PET/CT scans were performed. To determine target specificity, NOG mice without human PBMC were used as control. […] Mice were intravenously injected with approximately 150 uCi (35 Ci/mmol) of ^18F-labeled peptides and 45-minute whole body static PET/CT scans were performed 1 h after injection. Attenuation correction was performed using low-dose CT scan.

T1 sequence (P10144 21-247): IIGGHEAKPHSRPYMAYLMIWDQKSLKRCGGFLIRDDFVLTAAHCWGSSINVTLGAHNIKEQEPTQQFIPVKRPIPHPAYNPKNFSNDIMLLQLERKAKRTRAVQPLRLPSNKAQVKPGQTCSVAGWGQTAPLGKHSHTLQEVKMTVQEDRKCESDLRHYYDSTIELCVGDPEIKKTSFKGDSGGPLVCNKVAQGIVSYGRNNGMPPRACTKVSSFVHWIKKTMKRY

*F.Q.W.Q.A.S.N.E.D.D.T.P.F.*C.G.G.K(NOTA-1)·NH2) ({CH2CO}-FQWQASNEDDTPFCGGK(NOTA‑1)-NH2; thioether N-14) [scrambled peptide, 18F-labeled scrambled peptide used as negative control, reference compound]
binding to human granzyme-B (Human Granzyme B [1]): minimal/no binding | uptake (SUVmean) in lung, liver and bone, GvHD model versus NOG control (Human Granzyme B [2]): No significant difference was observed between lung, liver, and bone in GvHD model and NOG control
